Experimental data from article doi:10.1101/838888.

Target: superfolder GFP with strained-cyclooctyne pyrrolysine at residue 204 (sfGFP^204SCO) (Aequorea victoria) [GFP: P42212]
Test: FRET or BRET

- FRET efficiency: 86.8%
Substance: Venus with p-azido-L-phenylalanine at residue 204 (Venus^204azF) (from UniProt P42212 2-238)
